Biological target: bispecific binding molecule comprising a first specific binding molecule (comprising SEQ ID NO:265 a)
Sequence (chain, as listed by the source, chain 1 of 3): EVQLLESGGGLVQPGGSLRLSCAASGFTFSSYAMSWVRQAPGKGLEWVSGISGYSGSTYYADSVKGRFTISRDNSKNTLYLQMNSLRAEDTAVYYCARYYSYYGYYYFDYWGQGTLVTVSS
Sequence (chain, as listed by the source, chain 2 of 3): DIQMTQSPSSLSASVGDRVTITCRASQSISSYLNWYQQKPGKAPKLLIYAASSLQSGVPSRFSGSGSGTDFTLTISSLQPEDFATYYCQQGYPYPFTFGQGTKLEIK
Sequence (chain, as listed by the source, chain 3 of 3): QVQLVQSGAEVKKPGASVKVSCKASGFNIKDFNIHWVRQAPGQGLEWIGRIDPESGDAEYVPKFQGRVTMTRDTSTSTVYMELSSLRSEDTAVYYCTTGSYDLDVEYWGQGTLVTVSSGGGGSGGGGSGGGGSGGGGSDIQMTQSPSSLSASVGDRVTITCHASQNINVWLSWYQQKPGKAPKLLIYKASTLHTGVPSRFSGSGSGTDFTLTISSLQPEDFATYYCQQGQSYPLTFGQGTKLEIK

Row | Binder | Kd
1 | FIGITELHKGGSAVGALKVPRNQDWLGVPRQL (modifications not checked) [peptide SEQ ID NO:239 (tag moiety …, GGS spacer, cargo peptide)] | 0.063 nM
2 | FIGITELLKGGSAVGALKVPRNQDWLGVPRQL (modifications not checked) [peptide SEQ ID NO:238 (tag moiety …, GGS spacer, cargo peptide)] | 0.171 nM
3 | FIGITELHK (modifications not checked) [tag moiety … (SEQ ID NO:4)] | 0.015 nM
4 | FIGITELLKGGSSSAESLKISQAVHAAHAEINEAGREVVGSAE (modifications not checked) [peptide SEQ ID NO:244 (tag moiety …, GGS spacer, cargo peptide)] | 0.019 nM
5 | FIGITELHKGGSSSAESLKISQAVHAAHAEINEAGREVVGSAE (modifications not checked) [peptide SEQ ID NO:245 (tag moiety …, GGS spacer, cargo peptide)] | 0.0054 nM
6 | FIGITELLK (modifications not checked) [tag moiety … (SEQ ID NO:3)] | 0.063 nM
7 | FIGITELLKSSAESLKISQAVHAAHAEINEAGREVVGSAE (modifications not checked) [peptide SEQ ID NO:241 (tag moiety …, no spacer, cargo peptide)] | 0.013 nM
8 | FIGITELHKSSAESLKISQAVHAAHAEINEAGREVVGSAE (modifications not checked) [peptide SEQ ID NO:242 (tag moiety …, no spacer, cargo peptide)] | 0.019 nM
